This is an account of results in patent US20070141048A1 (SYMPHOGEN A S, published 2007).

T1: Ovalbumin (UniProt P01012 2-386)
T1 sequence: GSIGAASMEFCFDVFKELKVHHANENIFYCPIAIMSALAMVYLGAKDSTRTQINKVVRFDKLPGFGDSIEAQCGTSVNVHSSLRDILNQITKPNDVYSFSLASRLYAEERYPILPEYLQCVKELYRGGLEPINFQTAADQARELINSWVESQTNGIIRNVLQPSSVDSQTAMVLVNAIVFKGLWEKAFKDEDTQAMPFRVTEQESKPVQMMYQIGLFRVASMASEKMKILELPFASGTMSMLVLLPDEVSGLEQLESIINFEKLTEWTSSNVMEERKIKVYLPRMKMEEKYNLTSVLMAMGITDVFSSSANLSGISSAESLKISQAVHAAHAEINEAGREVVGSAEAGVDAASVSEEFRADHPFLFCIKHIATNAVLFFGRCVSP

B1: g060g03 (Fab, V domains shown)
VH: EVQLVQSGPEVKKPGASVRVSCKASGYSLKNYGIHWVRQAPGQGLEWMGWISADNGDTTTALNLRGRVSMTTDTSTNTVYMEVKSLRSDDTAIYFCARDFYSGSYRSFDYWGQGTLVTVS
VL: DVVMTQSPSSLSASLGDRVTITCRASQHISNYLNWYQQKPGKAPKLLIYAASSLQSGVPSRFTGSGSGADYTLTISSLQPEDFATYYCQQSYSTSWTFGQGTTVGIK
B2: g060a01 (Fab, V domains shown)
VH: QVQLVQSGPEVKKPGASVRVSCKASGYSFKNYGIHWVRQAPGQGLEWMGWISADNGDTTTALNLRGRVSMTTDTSTNTVYMEVKSLRSDDTAIYFCARDFYSGSYRSFDCWGQGTLVTVS
VL: EIVLTQSPSSLSASLGDRVTITCRASQHISNYLNWYQQKPGKAPKLLICAASSLQSGVPSRFTGSGSGADYTLTISSLQPEDFATYYCQQSYSTSWTFGQGTTVEIK
B3: g060h10 (Fab, V domains shown)
VH: EVQLVESGAEVKKPGSSVKVSCKASGGSFSTYAITWVRQAPGQGLEWMGGIIPIFASRDYAQKFQGRVTITADESTRTVYMELSSLRSDDTAVYYCARVLGGTRLYYALNVWGQGTTVTVS
VL: DIQLTQSPSSLSASVGDRVTITCRASQGISNFLAWYQQKPGKVPELLIYGASTLQSGVPSRFSGSGSGTEFTLTINSLQPEDVATYYCQKYDSGLRFTFGPGTKVDIK
B4: g060d05 (Fab, V domains shown)
VH: KVQLVESGAEVKKPGSSVKVSCKTSGGSFSTYSITWVRQAPGQGLEWMGGINPIFATRDYAQKFQGRVTITADESTRTVYMELRNLRSEDTAVYYCARVFGGTRLYYALNVWGQGTLVTVS
VL: DVVMTQSPSSLSASVGDRVTITCRASQGISNFLAWHQQKPGQVPKLLIYGASTLQSGVPSRFSGSGSGTDFTLTINGLQPEDVATYYCQKYDSGLIFTFGPGTRVEIK
B5: g060g11 (Fab, V domains shown)
VH: EVQLVESGAEVKKPGSSVKVSCKASGGSFSTYIFTWVRQAPGQGLEWMGGINPIFATRDYPKKFQGRVTITADESTRTVYMELSSLTSEDTAVYYCARVLGGTRLYYALNVWGQGTTVTVS
VL: EIVMTQSPSSLSASVGDRVTISCRASQGISNFLAWFQQKPGQVPKLLIYVASTLQSGVPSRFSGSGSGTDFSLTINGLQPEDVATYYCQRYDSGLIFTFGPGTKVEIK
B6: g060h02 (Fab, V domains shown)
VH: EVQLVQSGAEVKKPGSSVKVSCKASGGSFSTYAITWVRQAPGQGLEWMGGIIPIFASRDYAQKFQGRVTITADESTRTVYMEPRSLRSEDTAVYYCARVLGGTRLYYALNVWGQGTLVTVS
VL: EIVLTQSPSSLSASVGDRVTITCRASQGISNFLAWYQQKPGKVPELLIYGASTLQSGVPSRFSGSGSGTDFTLTINSLQPEDVATYYCQKYDSGLRFTFGPGAKVDIK
B7: g060d04 (Fab, V domains shown)
VH: KVQLVESGAEVKKPGSSVKVSCKASGGSFSTYAITWVRQAPGQGLEWMGGIIPIFASRDYAQKFQGRVTVTADESTRTVYMELSSLRSDDTAVYYCARVLGGTRLYYALNVWGQGTMVTVS
VL: DVVMTQFPSSLSASVGDRVTITCRASQGISNFLAWYQQKPGKVPELLIYGASTLQSGVPSRFSGSGSGAEFTLTINSLQPEDVATYYCQKYDSGLRFTFGPGTKVDIK
B8: g060a09 (Fab, V domains shown)
VH: GRAQVQLQESGPEVKKPGASVKVSCKASGYTFNSYGIAWVRQVPGQGLEWMGWISPYSGHTNYAEKVQGRVTMTTDTATSTACMELTSLRSDDTAVYFCARDYSSPYHFDYWGQGTWSPSR
VL: LADVVMTQSPSSLSASVGDRVTISCRASQPISTYLNWYQQKPGKAPKILIFGASRLQSGVPSRFSGSGSGTDFSLTITSLQPEDFATYICQQSKSPPYNFGRGTKLEIK
B9: g060c07 (Fab, V domains shown)
VH: KVQLVQSGAEVKKPGESLKISCQASGYGFTVYWIGWVRQPPGKGLEWLGIIYPGDSDTRYNPSFQGQVTISADKSVSTTYLQWSSLKASDTAIYYCARHLDSYDVFTGYNLGGYMDVWGKGTLVTVS
VL: ETTLTQSPGTLSLSPGERATLSCRASQSVSTNYLAWYRQKPGQAPRLLIHGASSRATGIPDRFSGSGSGTDFTLTISRLEPEDFAVYFCQQYGSSPQTFGQGTRLEIK
B10: g060d11 (Fab, V domains shown)
VH: KVQLVQSGAEVKKPGESLKISCQASGYGFTVYWIGWVRQPPGKGLEWLGIIYPGDSDTRYNPSFQGQVTISADKSVSTTYLQWSSLKASDTAIYYCARHLDSYDVFTGYNLGGYMDVWGKGTLVTVS
VL: ETTLTQSPGTLSLSPGERATLSCRASQSVSTNYLAWYRQKPGQAPRLLIHGASSRATGIPDRFSGSGSGTDFTLTISRLEPEDFAVYFCQQYGSSPQTFGQGTRLEIK
B11: g060g02 (Fab, V domains shown)
VH: EVQLVQSGAEVKKPGESLKISCQASGYGFTVYWIGWVRQLPGKGLEWLGIIYPGDSDTRYNPSFQGQVTISADKSVSTTYLQWSSLKASDTAIYYCARHLDSYDVFTGYNLGGYMDVWGKGTMVTVS
VL: DIQLTQSPGTLSLSPGERATLSCRASQSVSTNYLAWYRQKPGQAPRLLIHGASSRATGIPDRFSGSGSGTDFTLTISRLEPEDFAVYFCQQYGSSPQTFGQGTRLEIK
B12: g060f09 (Fab, V domains shown)
VH: EVQLVQSGAEVKKPGSSVKVSCKTEGGTFSTYVISWMRQAPGQGLEWMGGIVPIFNTPNYAQKFQGRVTITADRSTSTAYMELRSLGSEDTAVYYCARVVGGTRSYYALGFWGQGTTVTVS
VL: DIQLTQSPSSLSASVGDSVTITCRASQGISNFLAWYQKKPGKVPRLLIYGASTLQSGVPSRFSGSGSGTDFTLTISSLQPEDVATYYCQEYSNALIFTFGPGTKVHIK
B13: g060g04 (Fab, V domains shown)
VH: EVQLVQSGPGLVKPSETLSLTCAVSGASVSGGDYYWSWIRQPPGKALEWIGYIYYIGSTNYNPSLKSRLSLSVDTAKSQFSLKLSSVTAADTAIYFCARARRTYSGYDSAFDYWGQGTLVTVS
VL: DVVMTQSPSSLSASVGDRVSITCRASRSVKTYLNWYQQKPGKAPKLLVYGSSSLESGVPSRFSGSGSGTDFTLTISSLQPEDFATYYCQQSFGTPYTFGQGTKLDTK
B14: g060h04 (Fab, V domains shown)
VH: EVQLVQSGPGLVKPSETLSLTCAVSGASVSGGDYYWSWIRQPPGKALEWIGYIYYIGSTNYNPSLKSRLSLSVDTAKSQFSLKLSSVTAADTATYFCARARRTYSGYDSAFDYWGQGTLVTVS
VL: DVVMTQSPSSLSASVGDRVSITCRASRSVKTYLNWYQQKPGKAPKLLVYGSSSLESGVPSRFSGSGSGTDFTLTISSLQPEDFATYCCQQSFGTPYTFGQGTKLDIK

The assay concerns the target T1, Ovalbumin. Put plainly: ELISA, periplasmic extract on coated Ovalbumin.
Consider B1, for which the binding result is given as “no binding (tested: 10 µg/ml Ovalbumin coat)”. As for B2, the binding result is recorded as “no binding (tested: 10 µg/ml Ovalbumin coat)”. The same measure for B3: “no binding (tested: 10 µg/ml Ovalbumin coat)”; for B4: “no binding (tested: 10 µg/ml Ovalbumin coat)”.

As to B5, the binding result is given as “no binding (tested: 10 µg/ml Ovalbumin coat)”. The same measure for B6: “no binding (tested: 10 µg/ml Ovalbumin coat)”; for B7: “no binding (tested: 10 µg/ml Ovalbumin coat)”; for B8: “no binding (tested: 10 µg/ml Ovalbumin coat)”. The same measure for B9: “no binding (tested: 10 µg/ml Ovalbumin coat)”; for B10: “no binding (tested: 10 µg/ml Ovalbumin coat)”.

In the case of B11, the binding result is reported as “no binding (tested: 10 µg/ml Ovalbumin coat)”.

Consider B12, for which the binding result was “no binding (tested: 10 µg/ml Ovalbumin coat)”. The same measure for B13: “no binding (tested: 10 µg/ml Ovalbumin coat)”; for B14: “no binding (tested: 10 µg/ml Ovalbumin coat)”.
